Columns and labels:
[1] = system: Cc1cc(=O)oc2cc(NC(=O)[C@H](CCCNC(=N)N)NC(=O)[C@H](CCCNC(=N)N)NC(=O)OCc3ccccc3)ccc12; assay: purified protein
[2] = system: N=C(N)NCCC[C@H](NC(=O)OCc1ccccc1)C(=O)N[C@@H](CCCNC(=N)N)C(=O)Nc1ccc([N+](=O)[O-])cc1; assay: purified protein
[3] = target: T1, EhCP1 (Cysteine Protease 1 of Entamoeba histolytica) (Entamoeba histolytica, UniProt Q01957); assay: inhibition of purified recombinant enzyme, hydrolysis of Z-Arg-Arg-pNA and Z-Arg-Arg-AMC; type: biochemical
T1 construct: gene CP1; pro-mature polypeptide (Ile14 to Leu315), N-terminal hexahistidine tag
T1 sequence (Q01957 14-315): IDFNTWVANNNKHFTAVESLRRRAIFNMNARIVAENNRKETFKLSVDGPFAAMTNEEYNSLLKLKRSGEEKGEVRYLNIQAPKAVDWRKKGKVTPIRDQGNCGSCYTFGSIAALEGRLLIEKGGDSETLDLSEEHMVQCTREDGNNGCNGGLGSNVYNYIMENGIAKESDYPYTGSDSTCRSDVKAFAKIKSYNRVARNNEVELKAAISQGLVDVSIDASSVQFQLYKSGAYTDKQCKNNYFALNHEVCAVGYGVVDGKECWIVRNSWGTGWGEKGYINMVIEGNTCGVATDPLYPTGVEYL

| Compound | Km [1] [µM] | Km [2] [µM] | IC50 [3] [µM] |
| --- | --- | --- | --- |
| EhCP1 (Cysteine Protease 1 of Entamoeba histolytica) (Entamoeba histolytica HM-1:IMSS) | 6.7 | 57.1 | – |
| CC(C)C[C@H](NC(=O)[C@H]1O[C@@H]1C(=O)O)C(=O)NCCCCN=C(N)N [E-64, L-trans-3-carboxyoxiran-2-carbonyl-L-leucylagmatine] | – | – | 1 |
